{
  "source": "paper PMC11542851",
  "about": "(PLOS Pathogens, 2024)",
  "binders": {"B1": {"name": "C68.185 (antibody, V domains shown)", "VH": "QVQLVQSGAEVKKPGASVKVSCKTSGYAFTDHYVHWVRQAPGQGLEWMGVINPSGVGTSYAQMFQDRVTLTSDTSTSTVYMVLSSLRSEDTAVYYCVRDDYGVPARGWFDPWGQGTLVTVSS", "VL": "EVVLTQSPATLSLSPGERATLSCRASQSISSYLAWYQQKPGQAPRLLIYDASNRATGVPARFSGSGSGADFTLTISSLEAEDFALYYCQHRSNWLYTFGQGTKLEIK"}, "B2": {"name": "C68.121 (antibody, V domains shown)", "VH": "EVQLVESGGGLVKPGGSLRLSCAASGFTFSDYYMTWIRQAPGKGLEWVSKITNSNSYTHYADSVKGRFTISRDNAKNSLFLHMNSLRAEDTAVYYCARAIWIGYPDDYYMDVWGKGTTVTVSS", "VL": "SYELTQPPSVSVSPGQTARITCSGDTLPNQYVYWYQQKPGQAPVLLIYKDTERPSGIPERVSGSTSGTTVTLTISGVQAEDEADYYCQSADSSGTSFGGGTKLTVL"}, "B3": {"name": "C68.83 (antibody, V domains shown)", "VH": "EVQLVESGGGVVQPGRSLRLSCAASGFIFSSYGMHWVRQAPGKGLEWVAVIWYDGSNKYYADSVKGRFTISRDNSKNTLYLQMNSLRAEDTAVYYCARDDPEVGCSGGSCYYYYDMDVWGQGTTVTVSS", "VL": "SYELTQPPSVSVSPGQTARITCSGDALPKQHAHWYQQKPGQAPVLVIYKDIERPSGIPERFSGSSSGTTVTLTISGVQAEDEADYYCQSADSSVTYVVFGGGTKLTVL"}, "B4": {"name": "C68.200 (antibody, V domains shown)", "VH": "EVQLLESGGGLVQPGGSLRLSCTASGFTFSRYALTWVRQAPGKGLEWVSAISGSGGNTNYADSVKGRFTISRDNSKNTLYLQMNSLRAEDTAVYYCAKSPRYNNDYFDFWGQGTLVTVSS", "VL": "DIQLTQSPSTLSASVGDRVTITCRASQSISSWLAWYQQKPGKAPKLLIYDASSLESGVPSRFSGSGSGTEFTLTISSLQPDDFATYYCQQYNTFITFGHGTRLEIK"}, "B5": {"name": "C68.203 (antibody, V domains shown)", "VH": "B4 VH with W47C, I51F, G56D, N57S, N59Y, N104S", "VL": "B4 VL with T93S, H99Q"}, "B6": {"name": "C68.175 (antibody, V domains shown)", "VH": "EVQLLESGGGLVQPGGSLRLSCAASGFTFSSYAMSWVRQAPGKGLEWVSGISGSGGSTYYADSVKGRFTISRDNSKNTLHLQMNSLRAEDTAVYYCAKGSRWNPDYFDYWGQGTLVTVSS", "VL": "not shown"}, "B7": {"name": "C68.348 (antibody, V domains shown)", "VH": "QVQLQESGPRLVKSSGTLSLTCAVSGGSISSSKWWSWVRQPPGKGLEWIGEVYHGGSTNYNPSLKSRVTISVDKAKNQFSLKLSSVTAADSAVYYCASLDSAAVFDYWGQGTLVTVSS", "VL": "QSALTQPASVSGSPGQSITISCTGTSSDVGRFNYVSWYQQHPGKAPKLLIYDVSNRPSGVSNRFSGSKSGNTASLTISGLQAEDEADYYCNSYTSSSTLYVFGTGTKVTVL"}, "B8": {"name": "C68.88 (antibody, V domains shown)", "VH": "QVQLQESGPGLVKPSETLSLTCSVSGGPISSSRYYWGWIRQSPGEGLEWIGTIYYSGSTYYNPSFKSRVTISVDTSKNQFSLKLSSVTAADTAVYYCATRCYDFWSGYYNREMLWFDCWGQGTLVTVSS", "VL": "NFMLTQPHSVSESPGKTVTISCTRSSGSIASNYVQWYQQRPGSSPTTVIYENNQTPSGVPDRFSGSIDSSSNSASLTISGLKTEDEADYYCQSYDSSVVVFGGGTKLTVL"}, "B9": {"name": "C68.239 (antibody, V domains shown)", "VH": "EVQLLESGGGLVQPGGSLRLSCAASGFTFSSYAMSWVRQAPGKGLEWVSAISGGGDNTYYADSVKGRFTISRDNSKNTLYLQMNSLRAEDTAVYFCAKNPITVVPAAWDRGYFDLWGRGTLVTVSS", "VL": "SYELTQPPSVSVAPRKTARITCGGNNIGSYSVHWYQQRPGQAPVLVVHDDSDRPSGIPERFSGSNSGNTATLTISRVEAGDEADYYCQVWDSSSDHRGVFGGGTKLTVL"}, "B10": {"name": "C68.183 (antibody, V domains shown)", "VH": "EVQLLESGGGLVQPGGSLRLSCVASGFTFRNFAMSWVRQAPGKGLEWVSAISGSGDSTYYADSVKGRFTISRDNSKNTLYLQVNSLRVEDTAIYYCAKGSRGSTDYFDSWGQGTLVTVSS", "VL": "not shown"}, "B11": {"name": "C68.327 (antibody, V domains shown)", "VH": "EVQLLESGGGLVQPGGSLRLSCAASGFTFGSYAMSWVRQAPGKGLEWVSAISGSGGSTYYADSVKGRFTISRDNSKNTLYLQMNSLRAEDTAVYNCAKDLWDGFHWFDSWGQGTLVTVSS", "VL": "DIQMTQSPSSVSASVGDRVTITCRASQGISSWLAWYQQKPGKAPNLLIYSASSLQSGVPSRFSGSGSGTDFTLTISSLQPEDFATYYCQQANSFPITFGQGTRLEIK"}},
  "note": "Changes are numbered by the printed parent chain.",
  "data": [
    {"target": "T1, SARS-CoV-2 Wuhan-Hu-1 recombinant spike protein (trimer) (SARS-CoV-2 Wuhan-Hu-1, UniProt P0DTC2)", "T1 construct": "source: bought: Sino Biologics", "assay": "ELISA", "conditions": "both partners purified", "values": [
      {"binder": "B1", "binding result": "binds"},
      {"binder": "B2", "binding result": "binds"},
      {"binder": "B3", "binding result": "binds"},
      {"binder": "B4", "binding result": "binds"},
      {"binder": "B5", "binding result": "binds"},
      {"binder": "B6", "binding result": "binds"},
      {"binder": "B7", "binding result": "binds"},
      {"binder": "B8", "binding result": "binds"},
      {"binder": "B9", "binding result": "binds"},
      {"binder": "B10", "binding result": "binds"},
      {"binder": "B11", "binding result": "binds"}
    ]}
  ]
}
